Test results: the DeepSol protein solubility set

test: soluble on expression in E. coli; label from the status in PepcDB or PDB records

| Sequence | soluble on expression in E. coli |
| --- | --- |
| MGSDKIHHHHHHMVCNLAIDAYYGCMADFSHILMTRPDFGDDDREWLHQLVADWQVIADLSFADLLLILQNGEGKYIIAEQCRPSTVMSLRAEDVVGNVVPESLCAELDAAMDSESVFRSSKLRTVGKAKVCNVYAPVRHNGKTLGLVVRETNMATRESNGRYESESISAGKQLYEMIPRGQFPYRNPVMNQRHNARVADGFIVLTVDGIVRYASPNAISCFRRLGSVSTMQGEYLSEIGTKLLHENDPVLETLPLVLSGKAAVDSELDANKAAVSMRSLPLMDANGRVGGIVLCRDVSELRRREKELQTKDATISEIHHRVKNNLQAVSALLRLQARKTKSEEVKKELKEAQRRVQTIAMVHEGLSQTADEIVDYDKVISNLLKMAVDLATMRDQHIDVDFVGKFGMMPAQDATPLSLVLTELITNSVEHGFEGRKEGHITISVGRGGNNLNVVVEDDGTGLADEEHDGMARSSGSGLGTQIINTFVTNDFGGTVHWEPRRGGGTRVVLDMKLCAAQDN | not soluble |
| MAHHHHHHMSSQKESKKRKSDALDQACLELSEEVENAEEVPKKNDEVEEEDLETQFSNWKVNSGLLYDFVSRKELEWPSLSIDFGDYHNENVEDSVFNQIVCVGTHTSNKELNYLYVCEVLFPLEQLPQENCIYKTNQNYEGFDFCPDKKKFTIQSKIAHEGEVNRIKFLPLEKKNFVVTKAIDGNLHLFDINKHEIETSEDKMSPEVSFIGNSSDGFGLDFNAEKKYALTCGNDGVLNLYDYTEMDSKKVSPFYSVKYKSPLNDVCATNDPNLILSCADNGYILMYDIRVKGEEPAQQVLGQQVAVNCISLNKFTGHFASGSENGKIKIWDIKRFSEPQHIIHAHKEPIIRLNFSPNDSSILGSASTSRFINIYNLTKIGEELDAIDLSDGPSELIFSHGGHTQPITDFNWNHHKQLKMFIGSTGEDNTLQFWQLKTELLDEANTVPTSNTDVE | not soluble |
| MKGRRPPASPTAAASAQLELPLLAPPAAPDAAPPSADPAQPDPAAPLGPDQRRLALGERTLVYHLKRSSRRTIGFVVDDRGLSITAPRWVTLAEIEHAIAEKQKWIFAKLAEWHTSAARRVLPPMRWEDGATLPFLGKPVMLKLESPIGALVFDADMRTLHLGLPPTATGQQIKDRVQGWLQTQARRLFGERLDVYAERLGVRHSAYALSSAATRWGSCTADGKIRLNWRLVHFPLSLIDYVVAHELAHLKEMNHSPRFWDTVESIFPEFREAREQLRSHPPEYLPVFLEHHHHHH | not soluble |
| MSPDKQAAALPRRERNRQAAAASPENSRGKGRRGQRGKNRGCVLTAIHLNVTDLGLGYETKEELIFRYCSGSCEAAETMYDKILKNLSRSRRLTSDKVGQACCRPVAFDDDLSFLDDSLVYHILRKHSAKRCGCI | soluble |
| MGSDKIHHHHHHMILSHFSTKVVTFFGSRFKAVRGVDLKRYRKELKLKQQELASKLGIERSLISKIESGKRVISKELEQKIINVLNLDGGHASVEAKIDFLRIRFKTLDVRTVIEKLLHMDMNWFTHESRGFYHYTETFSYSSIRIFRNPENVNMGIMLDLSGEGCRQLEEIFEEDNNRSWTEFFRSLYDDDIFGQGILVDTKITRIDIALDELIVKGQENFDLYVLKEKMEQGLVDTTFKNFDFSGGFVYENKKMVNKGLSLYFGSRQSPLYFNFYQKDYELARKESMSVEEAREKHEIKNRYEIRLSDEKAFLFVEYFLSSGESLDWLVKEIINQSLTVYDIEDDMKVYCKSWHDVVDKLEGLKLSVQGEKPSIEKTLRWLSNYLAPSLKMIKEIDNLLGTNELMERIDLAELKEKHEEIIEMVSVDAKDLLFTNRDNKSVRSYMEREFELEEMYPF | not soluble |
| MSLVTIKDIARNLGISYSTVSRCLNNNPNVSEKTKKKVVEEANRLGFHFNVNARNLAKKETNRIGVIFSNNFNHQDTRKFFSDIMDSSINSIETNKYDFIIQPNNNISGDSNVYKMVNGQMVDGLVIVSQSIKKEEYDFLKDNNFPHVFIYFKPSFIGEVDNFFWDDNVYGGYIATKHLIDHGHKDIITVTSDDKSSKMHEDRTKGYLNAMEEANLKTEVIKSKMDFESQVEFLEKYIDKIKKASAIFVQQDVPAISIIQELKTTYGINVPEDISIIGYNNIELISYFRSHLSTIDDPREQVIKNGVDSLVNIINKKSTEHIPRKLYPRLIIRNSVKRIKEGHHHHHH | soluble |
| AIATDSASLQFVSPYAFEAMQKVDVARLAALSDPELRLLLPCLVRMALCAPADQSNAWAQDKKLILRLLSGVEAVNSIVALLSVDFHALEQDARKEQQLRHKAGGSNGESILVSQLQHGLTLEFEHSDPLRRLRLALSELLAIMNKVQCPFIYSCIGMLIRVIFPTGAH | soluble |
| MDNEKLIREARRMEDVQQLKMQIPKPVDKKPRPPPSENNLKLISCEETCMDETLKNSSKPRMIYNKQLGRAESIDFDVPSLSYESSTFKKSNNSSGGALVLDNHYLINNDDGTVKKLPMKVYVKQRLEDGSLDVQLVFFDENSQKVMDISMLVNGKKIRNVQFCGKDGKLVN | not soluble |
| SLEKSGFIVHQKFDSILQLEDFDSLDRALKESESYYQKLPSNWKTQVRKTSYHKNQMLNSLKILKKILREKNPESRKIQFQNSFLLLETKDEALGRITAYYEVIIEGRFYPEGDFIYPVLETPSDLIVKKDGNKKSVGKIINEVFVPYETREELSHTSVWKKRSKAIVYVKIVDLHLAQLEGSAFVKVPDHIPFRITYSEDNGKEYQSPAESLKGICSSLIPSDLKSCILKYPKEVEMAILKNPRYIFFKLESSAPRGSGGIELIPKRSVAMDPGIPLGIPVLISFESSVLTEKNRIVFVHDRGSQITGHGRLDYFLGTGETAEYQAGKINTQGKIFLILPKIKN | not soluble |
| MGSDKIHHHHHHMSKIEELPPSDTDDHSYSSKPGDVFLAFVDAPVKETDDILVEDSFIGGEPKWLHPDSEPPAELLKCGACKSADNMKLLLQAFSPLDDEQMSAIQQRLGINNMSYINPQDDRVLYVFLCTECQRKGNSVRCIRGVKKNKNVDSLSEKMASTSLEKDFQINPFDLSNNSDSKCNAFSSNPFGGANANPFGADSINSNISQSKDEGKKKESATVSAKTARKLHDLQKDKEYDGNKCFKSCLLYVEEETFKNKKPAHLQLPKNLKIDKEALDLTGDEDLEKDPIKLDPRTEKLSKFLDDDTFQKFQEVVGYNPLQVLRYDLGGKPLLYAETKVDILSTVPRPGYNPSSQRIFEMQLMPKMIFDLEEVVSVDNGMEWGTILVFTDVENYMPEFDEHGVGYVEECVKVQWESRT | not soluble |
| EVQLVESGGGLVKPGGSLRLSCAASGFTFSSYSMNWVRQAPGKGLEWVSSISSSSSYISYADSVKGRFTISRDNAKNSLYLQMNSLRAEDTAVYFCARDYDFWSAYYDAFDVWGQGTMVTVSSASTKGPSVFPLAPSSKSTSGGTAALGCLVKDYFPEPVTVSWNSGALTSGVHTFPAVLQSSGLYSLSSVVTVPSSSLGTQTYICNVNHKPSNTKVDKKVEPKSCAADEVDHHHHHH | soluble |
| MGSDKIHHHHHHMTHPSVDQENLPQTASLPENIIEAAITWSIRLDYNDPTPETRQSFDQWLHADPLHRLAWQRVDSLNNLRNDCRSLPSRLAFDTLQEVDSRRQSRKLSRRNAMKLLSLAGITIATGWTVREHTPWQRLLADASTVTGEQRVLHLTDGTVVVLNTDSAVSFDLTEAQRLIVLQRGEMHITTGPDSEVSARIGRKRPFRVRTPFGELQALGTRFVVRLDEQHARVSVQEGAVELHPSAGGSSAIVQAGESRRLTGSSILPEADRYFEEDGWVSGVIAGKNIRLADLVAELSRYRPGYIVCDERVADLPISGIFHVKDTDKALQFLAQTQPVSVMYRTRFWVIVGPKSLYR | not soluble |
| MKILRFNEGRWGVLEGELVLETDGPGGNPTGRRYDLASVTLLPPATPTKIVCVGRNYREHIREMGHDFGEDLPKEPGLFLKGPNALARPGNPRDPWGTAEPVPYPFFTEELHYEGELAVVVGDRMRHVPPEKALDHVLGYTVAVDITARDVQKKDLQWVRAKSADKFLPLGPWLETDLNPQDTWVRTYVNGTLRQEGHTSQMIFSVAEILSYISTFMTLEPLDVVLTGTPEGVGALRPGDRLEVAVEGVGTLFTLIGPKEERPW | soluble |
| MSLVINAPFKVIASKVTAEVLKSVNSKLGSYSTNYATSSEARATNVAVATRSIDGKVVMPGETFSFNEVVGERTRARGYKEAGVIVNQKLESGFGGGVCQVSSTLYNALLRSNIKMTERVHHTFPSSYVPTGLDATVDWGNIDLKFKNTFKYPIYIQGYTGGREVGFNIYSNSELARTRCEITSEVYKKIEPRTEYINDSNLPAGAMEVVKSGHTGYRVKSYRSIYKDGKFVAKELIANDYYVPVNGVVKRGTREGHHHHHH | soluble |
| MRGSHHHHHHTDPALRAKKIPCVMMRGGTSRGAFLLAEHLPEDQTQRDKILMAIMGSGNDLEIDGIGGGNPLTSKVAIISRSSDPRADVDYLFAQVIVHEQRVDTTPNCGNMLSGVGAFAIENGLIAATSPVTRVRIRNVNTGTFIEADVQTPNGVVEYEGSARIDGVPGTAAPVALTFLNAAGTKTGKVFPTDNQIDYFDDVPVTCIDMAMPVVIIPAEYLGKTGYELPAELDADKALLARIESIRLQAGKAMGLGDVSNMVIPKPVLISPAQKGGAINVRYFMPHSCHRALAITGAIAISSSCALEGTVTRQIVPSVGYGNINIEHPSGALDVHLSNEGQDATTLRASVIRTTRKIFSGEVYLPGLCGR | soluble |
| MRGSHHHHHHGSVEYTPWLIAGLGNPGNKYYGTRHNVGFEMVDRIAAEEGITMNTEQSKSLLGIGSIGEVPVLVVKPQSYMNYSGEAIGPLAAYYQVPLRHILLIYDDTSLPNGVLRLQKKGGHGRHNGLQNVIEHLDGRREFPRLSIGIGSPPGKMDPRAFLLQKFSSEERVQIDTALEQGVDAVRTLVLKGFSGSTERFNLVQKYKFHRV | soluble |
| YCTLADLQLAIPQATLTQLTNDVPADYSVAQEPNLAVVEEAVRQAEELVDAHLRGRYVLPLVTVPSVIKDNTVNLARHWLYARRPEGNELPDAVTRTYKAALQILESIRDGKLHIGVPTGEAAPEPGEVRVRARRQLFSASM | not soluble |
| MSMSSTVIKFRAGVCEYNEDSRLCTPIPVQGEIEIKPNEEEELGFWDFEWRPTEKPVGRELDPISLILIPGETMWVPIKSSKSGRIFALVFSSNERYFFWLQEKNSGNLPLNELSAKDKEIYNKMIGVLNNSSESDEEESNDEKQKAQDVDVSMQD | soluble |
| MTVVNEYRPVEVFFGEGAVKKAGEVGRRFGFKALIVTGRKSTKESGALDKLINSLKQNQIEYVVFDEITPNPTDKQVNKGAEIAVNEKVDFIVGIGGGSVLDAAKAISIVSSNEGYAWDYVRYPEGSRLIPFLNRPVITIPTTAGTGSEVNRYSVLTNPMTKEKMVISHSLNYPKVALVDPELTYSMPPRLTALTGFDALMHALESLTNKRENFIAEEYSVKAIELIRKWLPVAFEEPENKEARRYMSYAAMLAGIAIDHLGVALIHAMEHPVSGHYPEVAHAEGLSALAPYITAFNYRGNPEKYALFARLMGEEEKPHKAVDALVKFIERFSLPKTLKELGVEKEKLPRLAEDVYMCARHSFAVNPVEVGMEEVEELYERAYEGRL | soluble |
| MKILAFETSTEACSVALHVDGAVRERFELAPRRHAELALPWAEQLLAEAGISRRQLDAIAVGRGPGAFSGVRLAIGIVQGIALALDLPVLAISTLQVLALRAPAEASHVLACIDARMGEVYAGLFERQGEALLTLGSEVVCAPEAVLLPQSTPQWAGVGTGLAAGEMPLQQRFAGRLSSVDAAALPHAADLLTLALPAALRGEGVAPERVEPAYLRDNVALTLVEQQAARAAKAAAVPRLEHHHHHH | not soluble |
